Here are results for 1 molecule from publication PMC7497679, “Structure-based design, synthesis, and evaluation of the biological activity of novel phosphoroorganic small molecule IAP antagonists” (Investigational New Drugs, 2020).

As usually defined, the EC50 is the midpoint of the concentration-response curve. A higher EC50 goes with lower potency in that assay.

The assay addresses X-linked inhibitor of apoptosis protein (XIAP) BIR3 domain (human). Kind of assay: fluorescence polarisation; competition: XIAP BIR3 (50 nM) added to the competitor (50 µM to 0.640 nM or to 0.0537 nM), 15 min at r.t., then probe 4 (2 nM), read 30 min later; phosphate buffer pH 7.5 with γ-globulin 100 µg/mL and NaN3 0.02%, final DMSO 1.4%.

In the case of H-AVPW-OH [tetrapeptide H2N-Ala-Val-Pro-Trp-OH (3)], the EC50 came out at 340 nM.
